{
  "source": "patent US7081343",
  "target": "T7-RelA (UniProt Q04206)",
  "sequence (Q04206 whole entry)": "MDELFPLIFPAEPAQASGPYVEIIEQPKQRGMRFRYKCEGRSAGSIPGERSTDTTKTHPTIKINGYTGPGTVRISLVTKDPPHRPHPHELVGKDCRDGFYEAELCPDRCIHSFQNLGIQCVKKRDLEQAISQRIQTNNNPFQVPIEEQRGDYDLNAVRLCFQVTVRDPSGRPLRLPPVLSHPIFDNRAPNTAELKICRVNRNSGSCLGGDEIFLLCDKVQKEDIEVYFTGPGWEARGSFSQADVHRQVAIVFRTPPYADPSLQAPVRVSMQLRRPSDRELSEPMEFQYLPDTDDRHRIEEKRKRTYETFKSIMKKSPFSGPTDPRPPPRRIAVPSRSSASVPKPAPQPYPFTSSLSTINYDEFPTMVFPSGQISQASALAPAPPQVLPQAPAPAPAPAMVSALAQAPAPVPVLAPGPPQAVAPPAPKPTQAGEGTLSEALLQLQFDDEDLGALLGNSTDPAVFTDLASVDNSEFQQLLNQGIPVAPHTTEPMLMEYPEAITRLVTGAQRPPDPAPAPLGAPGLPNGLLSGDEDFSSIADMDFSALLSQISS",
  "data": [
    {"substance": "p300", "values": [
      {"measurement": "acetylation of T7-RelA (anti-T7 immunoprecipitation, anti-acetylated lysine blot)", "value": "Co-expression of either p300 or CBP with RelA produced dose related acetylation of T7-Rel A"}
    ]},
    {"substance": "CBP", "values": [
      {"measurement": "acetylation of T7-RelA (anti-T7 immunoprecipitation, anti-acetylated lysine blot)", "value": "Co-expression of either p300 or CBP with RelA produced dose related acetylation of T7-Rel A"}
    ]}
  ]
}
